What was measured:
APE1 (ΔAPE1 C138A) [1] = target: T1, APE1 (ΔAPE1 C138A) (Homo sapiens, UniProt P27695 44-318, C138A); assay: X-ray crystallography; 5 mM CaCl2, no metal resolved; Crystallization: 7-14% PEG 20K, 100 mM sodium citrate pH 5.0, 15% glycerol, 5 mM CaCl2, 20 °C; 0.56 mM DNA, 10-12 mg/ml APE1; data at 100 K; conditions: protein: recombinant; nicked duplex, three strands 1:1:1, blunt ends, C/T mismatch at 3' end of nick
APE1 (ΔAPE1 C138A) [2] = target: T1, APE1 (ΔAPE1 C138A); assay: X-ray crystallography (2.6 Å); Crystallization: 7-14% PEG 20K, 100 mM sodium citrate pH 5.0, 15% glycerol, 5 mM CaCl2, 20 °C; 0.56 mM DNA, 10-12 mg/ml APE1; data at 100 K; conditions: protein: recombinant; nicked duplex, three strands 1:1:1, blunt ends, fully paired
APE1 (ΔAPE1 C138A) [3] = target: T1, APE1 (ΔAPE1 C138A); assay: X-ray crystallography (2.3 Å); MgCl2 soak 2.5 h, no metal resolved; Crystallization: 7-14% PEG 20K, 100 mM sodium citrate pH 5.0, 15% glycerol, 5 mM CaCl2, 20 °C; 0.56 mM DNA, 10-12 mg/ml APE1; data at 100 K; conditions: protein: recombinant; 1-nt gapped duplex, three strands, blunt ends
APE1 (ΔAPE1 C138A) [4] = target: T1, APE1 (ΔAPE1 C138A); assay: X-ray crystallography (2.10 Å); no metal resolved; Crystallization: 7-14% PEG 20K, 100 mM sodium citrate pH 5.0, 15% glycerol, 5 mM CaCl2, 20 °C; 0.56 mM DNA, 10-12 mg/ml APE1; data at 100 K; conditions: protein: recombinant; nicked duplex, three strands 1:1:1, blunt ends, C/T mismatch at 3' end of nick
[5] = target: APE1 F266A (ΔAPE1 C138A F266A) (Homo sapiens, UniProt P27695 44-318, C138A;F266A); assay: X-ray crystallography; Crystallization: 7-14% PEG 20K, 100 mM sodium citrate pH 5.0, 15% glycerol, 5 mM CaCl2, 20 °C; 0.56 mM DNA, 10-12 mg/ml APE1; data at 100 K; conditions: protein: recombinant; nicked duplex, three strands 1:1:1, blunt ends, C/T mismatch at 3' end of nick
Chain of APE1 F266A (ΔAPE1 C138A F266A) (P27695 44-318 C138A/F266A): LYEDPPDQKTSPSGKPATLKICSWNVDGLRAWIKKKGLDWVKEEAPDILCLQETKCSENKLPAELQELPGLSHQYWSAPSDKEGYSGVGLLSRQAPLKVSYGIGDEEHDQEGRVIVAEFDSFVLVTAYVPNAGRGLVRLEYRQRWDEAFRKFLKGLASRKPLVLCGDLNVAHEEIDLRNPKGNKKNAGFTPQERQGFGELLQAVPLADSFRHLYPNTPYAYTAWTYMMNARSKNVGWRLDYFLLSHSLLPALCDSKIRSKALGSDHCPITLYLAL

T1 sequence (P27695 44-318 C138A): as the sequence (P27695 44-318 C138A/F266A) above, with A223F counted along it

B1: 21-mer nicked duplex, 3' C/T mismatch (dsDNA)
DNA 1: GGATCCGTCGATCGCATCAGC
DNA 2: GCTGATGCGC
DNA 3: TCGACGGATCC
modifications: 5'-phosphate on strand 3
binding result (APE1 (ΔAPE1 C138A) [1]): binds

B2: 21-mer nicked duplex, 3' C/G match (dsDNA)
DNA 1: GGATCCGTCGAGCGCATCAGC
DNA 2: GCTGATGCGC
DNA 3: TCGACGGATCC
modifications: 5'-phosphate on strand 3
binding result (APE1 (ΔAPE1 C138A) [2]): binds

B3: 21-mer duplex with 1-nt gap (exo product) (dsDNA)
DNA 1: GGATCCGTCGATCGCATCAGC
DNA 2: GCTGATGCG
DNA 3: TCGACGGATCC
modifications: 5'-phosphate on strand 3; 3'-OH on strand 2
binding result (APE1 (ΔAPE1 C138A) [3]): binds

B4: 21-mer nicked duplex, 3' C/T mismatch, phosphorothioate (dsDNA)
DNA 1: GGATCCGTCGATCGCATCAGC
DNA 2: GCTGATGCGC
DNA 3: TCGACGGATCC
modifications: phosphorothioate 5' to the 3'-terminal C of strand 2 (Sp and Rp); 5'-phosphate on strand 3
binding result (APE1 (ΔAPE1 C138A) [4]): binds

B5: 21-mer nicked duplex, 3' C/T mismatch (F266A crystal) (dsDNA)
DNA 1: GGATCCGTCGATCGCATCAGC
DNA 2: GCTGATGCGC
DNA 3: TCGACGGATCC
modifications: 5'-phosphate on strand 3; phosphorothioate not stated for this crystal
binding result [5]: binds
